Holding throughout (test): cell-based or functional assay
For assay [1], the target named is SARS-CoV-2 spike (S) protein, Omicron sublineage BA.2.75.2 (SARS-CoV-2).
Assay [2] deals with SARS-CoV-2 spike (S) protein, Omicron sublineage BA.4/5 (SARS-CoV-2).
Assay [3] deals with SARS-CoV-2 spike (S) protein, Omicron sublineage XBB (SARS-CoV-2).
The target in assay [4] is SARS-CoV-2 spike (S) protein, Omicron sublineage BQ.1 (SARS-CoV-2).
Assay [5] has as its target SARS-CoV-2 spike (S) protein, Omicron sublineage BQ.1.1 (SARS-CoV-2).

B1: F770-E8 (antibody, V domains shown)
VH: QVTLRESGPALVKPTQTLTLTCTFSGFSLSTRGVCVSWIRQPPGKALEWLAFIDWDDDKYYNTSLKTRLTISKDTSKNQVVLTMTNVHPVDTATYYCARISSHHGSSWCTTFDYWGQGALVTVSA
VL: DTVMTQSPLSLPVTPGEPASISCRSSQSLLNSNGYNYLDWYVQKPGQSPQLLIYLGSNRASGVPDRFSGSGSGTDFTLKISRVEAEDVGVYYCMQPLQTPLFTFGPGTKVEIK
Consider B1, for which the IC50, pseudovirus neutralization in assay [1] was found to be 0.00172 µg/mL; in assay [2], 0.00013 µg/mL; in assay [3] it was 0.0615 µg/mL; in assay [4], 0.124 µg/mL; in assay [5] it was 0.496 µg/mL. In addition, the IC80, pseudovirus neutralization is 0.0059 µg/mL in assay [1]; 0.00049 µg/mL in assay [2]; 0.705 µg/mL in assay [3]; 5.19 µg/mL in assay [4]; 1.8 µg/mL in assay [5].

B2: F769-E12 (antibody, V domains shown)
VH: EVQLVESGGGLIQPGGSLRLSCAASGVIVSYNYMNWVRQAPGKGLEWVSVIYSGGSTFYADSVRGRFTISRDNSKNTLYLQMNSLRAEDTAVYYCARDLGPAGAFDIWGLGTMVTVSS
VL: EIVLTQSPGTLSLSPGETATLSCRASQSFSSDLAWYQQKPGQAPRLLIYGASSRATGIPDRFSGSGSGTDFTLTISRLEPADFAVYYCQQYGSSPPVTFGGGTKVEIK
Take B2: the IC50, pseudovirus neutralization in assay [1] worked out at 0.00699 µg/mL; in assay [2], 0.00462 µg/mL; in assay [3], 0.0126 µg/mL; in assay [4], 0.0119 µg/mL; in assay [5], 0.00529 µg/mL. The IC80, pseudovirus neutralization was 0.0401 µg/mL in assay [1]; 0.00921 µg/mL in assay [2]; 0.0311 µg/mL in assay [3]; 0.0409 µg/mL in assay [4]; 0.0174 µg/mL in assay [5].

B3: E76-B8 (antibody, V domains shown)
VH: EVQLVESGGALIQPGGSLRLSCAASGIIVSANYMSWVRQAPGKGLEWVSVIYSGGSTFYADSVKGRFTISRDNSKNTLYLEMNSLRAEDTAVYYCARDAPILGVSDWGQGTLVTVSS
VL: EIVMTQSPAILSVSPGERATLSCRASQSVAINLAWYQQKPGQAPRLLIYAASSRATGIPGRFSGSGSETNFTLTISSLQSGDFAVYYCQQYITWPPSYTFGQGTKLEIK
On to B3, for which the IC50, pseudovirus neutralization in assay [1] came to 0.0122 µg/mL; in assay [2], 0.00697 µg/mL; in assay [3], 0.0134 µg/mL; in assay [4] it was 0.015 µg/mL; in assay [5] it was 0.00457 µg/mL. In addition, the IC80, pseudovirus neutralization in assay [1] worked out at 0.0274 µg/mL; in assay [2] it was 0.0148 µg/mL; in assay [3] it was 0.0472 µg/mL; in assay [4], 0.0496 µg/mL; in assay [5], 0.0217 µg/mL.

B4: MX1057 (trispecific antibody)
chain 1: QTVVTQEPSFSVSPGGTVTLTCGLSSGSVSTAYFPSWYQQTPGQAPRTLIYGTNTRSSGVPDRFSGSILGNKAALTITGAQADDESDYYCVLYMGRGIVVFGGGTKLTVLGGSSGDTVMTQSPLSLPVTPGEPASISCRSSQSLLNSNGYNYLDWYVQKPGQSPQLLIYLGSNRASGVPDRFSGSGSGTDFTLKISRVEAEDVGVYYCMQPLQTPLFTFGPGTKVEIKGGGGSGGSGSGGGGSASGSGQVTLRESGPALVKPTQTLTLTCTFSGFSLSTRGVCVSWIRQPPGKALEWLAFIDWDDDKYYNTSLKTRLTISKDTSKNQVVLTMTNVHPVDTATYYCARISSHHGSSWCTTFDYWGQGALVTVSAGGSSGQVQLVESGGGVVQPGRSLRLSCAASGFTLSSYGMHWVRQAPGKGLEWVAVISYDGSNKYYVDSVKGRFTISRDNSKNTLYLQMNSLRAEDTAVYYCRWAYWELLPDYYYGMDVWGQGTTVTVSSASGGSGDKTHTCPPCPAPELLGGPSVFLFPPKPKDTLMISRTPEVTCVVVDVSHEDPEVKFNWYVDGVEVHNAKTKPREEQYNSYVVSVLTVLHQDWLNGKEYKCKVSNKALPAPIEKTISKAKGQPREPQVYTLPPCRDELTKNQVSLWCLVKGFYPSDIAVEWESNGQPENNYKTTPPVLDSDGSFFKKLTVDKSRWQQGNVFSCSVLHEALHSHYTQKSLSLSPG
chain 2: EIVMTQSPAILSVSPGERATLSCRASQSVAINLAWYQQKPGQAPRLLIYAASSRATGIPGRFSGSGSETNFTLTISSLQSGDFAVYYCQQYITWPPSYTFGQGTKLEIKGGSSGDTVMTQSPLSLPVTPGEPASISCRSSQSLLNSNGYNYLDWYVQKPGQSPQLLIYLGSNRASGVPDRFSGSGSGTDFTLKISRVEAEDVGVYYCMQPLQTPLFTFGPGTKVEIKGGGGSGGSGSGGGGSASGSGQVTLRESGPALVKPTQTLTLTCTFSGFSLSTRGVCVSWIRQPPGKALEWLAFIDWDDDKYYNTSLKTRLTISKDTSKNQVVLTMTNVHPVDTATYYCARISSHHGSSWCTTFDYWGQGALVTVSAGGSSGEVQLVESGGALIQPGGSLRLSCAASGIIVSANYMSWVRQAPGKGLEWVSVIYSGGSTFYADSVKGRFTISRDNSKNTLYLEMNSLRAEDTAVYYCARDAPILGVSDWGQGTLVTVSSASGGSGDKTHTCPPCPAPELLGGPSVFLFPPKPKDTLMISRTPEVTCVVVDVSHEDPEVKFNWYVDGVEVHNAKTKPREEQYNSYVVSVLTVLHQDWLNGKEYKCKVSNKALPAPIEKTISKAKGQPREPQVCTLPPSRDELTKNQVSLSCAVKGFYPSDIAVEWESNGQPENNYKTTPPVLDSDGSFFLVSKLTVDKSRWQQGNVFSCSVLHEALHSHYTQKSLSLSPG
For B4, the IC50, pseudovirus neutralization in assay [1] is 0.00127 µg/mL; in assay [2] it was 0.00404 µg/mL; in assay [3], 0.00639 µg/mL; in assay [4] it was 0.0083 µg/mL; in assay [5] it was 0.0123 µg/mL. For the same molecule, the IC80, pseudovirus neutralization in assay [1] amounted to 0.00379 µg/mL; in assay [2], 0.00742 µg/mL; in assay [3], 0.0355 µg/mL; in assay [4], 0.0236 µg/mL; in assay [5], 0.0561 µg/mL.

B5: MX1058 (trispecific antibody)
chain 1: QTVVTQEPSFSVSPGGTVTLTCGLSSGSVSTAYFPSWYQQTPGQAPRTLIYGTNTRSSGVPDRFSGSILGNKAALTITGAQADDESDYYCVLYMGRGIVVFGGGTKLTVLGGSSGDTVMTQSPLSLPVTPGEPASISCRSSQSLLNSNGYNYLDWYVQKPGQSPQLLIYLGSNRASGVPDRFSGSGSGTDFTLKISRVEAEDVGVYYCMQPLQTPLFTFGPGTKVEIKGGGGSGGSGSGGGGSASGSGQVTLRESGPALVKPTQTLTLTCTFSGFSLSTRGVCVSWIRQPPGKALEWLAFIDWDDDKYYNTSLKTRLTISKDTSKNQVVLTMTNVHPVDTATYYCARISSHHGSSWCTTFDYWGQGALVTVSAGGSSGQVQLVESGGGVVQPGRSLRLSCAASGFTLSSYGMHWVRQAPGKGLEWVAVISYDGSNKYYVDSVKGRFTISRDNSKNTLYLQMNSLRAEDTAVYYCRWAYWELLPDYYYGMDVWGQGTTVTVSSASGGSGDKTHTCPPCPAPELLGGPSVFLFPPKPKDTLMISRTPEVTCVVVDVSHEDPEVKFNWYVDGVEVHNAKTKPREEQYNSYVVSVLTVLHQDWLNGKEYKCKVSNKALPAPIEKTISKAKGQPREPQVYTLPPCRDELTKNQVSLWCLVKGFYPSDIAVEWESNGQPENNYKTTPPVLDSDGSFFKKLTVDKSRWQQGNVFSCSVLHEALHSHYTQKSLSLSPG
chain 2: DTVMTQSPLSLPVTPGEPASISCRSSQSLLNSNGYNYLDWYVQKPGQSPQLLIYLGSNRASGVPDRFSGSGSGTDFTLKISRVEAEDVGVYYCMQPLQTPLFTFGPGTKVEIKGGSSGEIVMTQSPAILSVSPGERATLSCRASQSVAINLAWYQQKPGQAPRLLIYAASSRATGIPGRFSGSGSETNFTLTISSLQSGDFAVYYCQQYITWPPSYTFGQGTKLEIKGGGGSGGSGSGGGGSASGSGEVQLVESGGALIQPGGSLRLSCAASGIIVSANYMSWVRQAPGKGLEWVSVIYSGGSTFYADSVKGRFTISRDNSKNTLYLEMNSLRAEDTAVYYCARDAPILGVSDWGQGTLVTVSSGGSSGQVTLRESGPALVKPTQTLTLTCTFSGFSLSTRGVCVSWIRQPPGKALEWLAFIDWDDDKYYNTSLKTRLTISKDTSKNQVVLTMTNVHPVDTATYYCARISSHHGSSWCTTFDYWGQGALVTVSAASGGSGDKTHTCPPCPAPELLGGPSVFLFPPKPKDTLMISRTPEVTCVVVDVSHEDPEVKFNWYVDGVEVHNAKTKPREEQYNSYVVSVLTVLHQDWLNGKEYKCKVSNKALPAPIEKTISKAKGQPREPQVCTLPPSRDELTKNQVSLSCAVKGFYPSDIAVEWESNGQPENNYKTTPPVLDSDGSFFLVSKLTVDKSRWQQGNVFSCSVLHEALHSHYTQKSLSLSPG
As for B5, the IC50, pseudovirus neutralization is 0.00403 µg/mL in assay [1]; 0.00274 µg/mL in assay [2]; 0.0142 µg/mL in assay [3]; 0.016 µg/mL in assay [4]; 0.00449 µg/mL in assay [5]. The IC80, pseudovirus neutralization was determined as 0.01 µg/mL in assay [1]; 0.00551 µg/mL in assay [2]; 0.0318 µg/mL in assay [3]; 0.032 µg/mL in assay [4]; 0.0285 µg/mL in assay [5].

The values are drawn from patent publication US20240109955A1.
